Assay results taken from patent US11965039B2, “Compstatin analogues and their medical uses” (priority 2018, dated 2024).
Positions of bridges follow the written chain, without caps; N, C: chain ends. Non-standard residues stand in square brackets, D forms with d. Trp(1-Me) = Cn1cc(C[C@H](N)C(=O)O)c2ccccc21; Sar = CNCC(=O)O

molecular target: Human C3 (Complement tech cat #A113c) (human, UniProt P01024 23-1663); assay: cell-based or functional assay
Sequence (P01024 23-1663 limits assumed): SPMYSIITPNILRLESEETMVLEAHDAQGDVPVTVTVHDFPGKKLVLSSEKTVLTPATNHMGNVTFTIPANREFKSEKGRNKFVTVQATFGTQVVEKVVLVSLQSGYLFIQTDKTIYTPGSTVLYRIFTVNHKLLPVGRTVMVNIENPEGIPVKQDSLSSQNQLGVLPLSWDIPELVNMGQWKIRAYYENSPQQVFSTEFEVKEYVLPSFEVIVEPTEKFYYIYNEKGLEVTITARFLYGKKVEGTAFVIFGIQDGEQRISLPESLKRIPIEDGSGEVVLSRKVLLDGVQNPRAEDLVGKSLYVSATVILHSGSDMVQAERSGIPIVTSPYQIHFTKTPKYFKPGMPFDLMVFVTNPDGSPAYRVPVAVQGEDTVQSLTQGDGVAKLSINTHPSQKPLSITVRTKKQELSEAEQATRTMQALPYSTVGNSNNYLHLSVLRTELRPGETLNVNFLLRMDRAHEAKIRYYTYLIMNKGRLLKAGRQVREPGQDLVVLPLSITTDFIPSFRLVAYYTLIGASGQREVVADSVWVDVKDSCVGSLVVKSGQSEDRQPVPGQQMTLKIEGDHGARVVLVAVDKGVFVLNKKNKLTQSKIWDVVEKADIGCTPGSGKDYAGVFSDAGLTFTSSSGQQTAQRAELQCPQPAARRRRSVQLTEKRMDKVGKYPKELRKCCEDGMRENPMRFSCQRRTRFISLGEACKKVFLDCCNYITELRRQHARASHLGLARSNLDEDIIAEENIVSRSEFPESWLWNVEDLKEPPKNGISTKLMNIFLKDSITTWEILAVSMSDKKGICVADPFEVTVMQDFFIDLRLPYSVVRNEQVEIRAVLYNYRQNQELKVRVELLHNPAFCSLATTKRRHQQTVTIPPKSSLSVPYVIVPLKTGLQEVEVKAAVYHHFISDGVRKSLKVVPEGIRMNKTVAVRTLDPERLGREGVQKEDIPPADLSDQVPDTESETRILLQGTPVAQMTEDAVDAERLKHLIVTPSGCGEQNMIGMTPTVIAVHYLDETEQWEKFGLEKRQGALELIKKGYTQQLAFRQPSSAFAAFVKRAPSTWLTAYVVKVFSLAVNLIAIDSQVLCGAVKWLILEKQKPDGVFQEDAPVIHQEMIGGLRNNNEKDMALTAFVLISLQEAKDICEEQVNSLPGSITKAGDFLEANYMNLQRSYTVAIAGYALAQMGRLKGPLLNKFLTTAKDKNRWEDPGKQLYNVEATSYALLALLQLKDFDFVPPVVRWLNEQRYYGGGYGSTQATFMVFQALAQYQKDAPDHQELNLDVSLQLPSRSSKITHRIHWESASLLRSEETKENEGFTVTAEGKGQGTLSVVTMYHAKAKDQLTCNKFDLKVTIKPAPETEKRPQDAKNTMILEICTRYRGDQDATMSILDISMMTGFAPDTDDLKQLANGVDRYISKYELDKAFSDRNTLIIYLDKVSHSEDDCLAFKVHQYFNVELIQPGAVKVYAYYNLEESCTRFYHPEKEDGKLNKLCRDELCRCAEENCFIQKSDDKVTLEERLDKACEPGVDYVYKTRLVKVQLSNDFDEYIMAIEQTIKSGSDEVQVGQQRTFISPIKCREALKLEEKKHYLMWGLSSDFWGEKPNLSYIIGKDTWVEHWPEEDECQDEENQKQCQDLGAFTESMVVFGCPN

| Binder | inhibition of hemolysis IC50 |
| --- | --- |
| Ac-YCI[Trp(1-Me)]QDWGEHRCTESGA-NH2 (disulfide 2-12; SMILES CC[C@H](C)[C@@H]1NC(=O)[C@@H](NC(=O)[C@H](Cc2ccc(O)cc2)NC(C)=O)CSSC[C@@H](C(=O)N[C@H](C(=O)N[C@@H](CCC(=O)O)C(=O)N[C@@H](CO)C(=O)NCC(=O)N[C@@H](C)C(N)=O)[C@@H](C)O)NC(=O)[C@H](CCCNC(=N)N)NC(=O)[C@H](Cc2c[nH]cn2)NC(=O)[C@H](CCC(=O)O)NC(=O)CNC(=O)[C@H](Cc2c[nH]c3ccccc23)NC(=O)[C@H](CC(=O)O)NC(=O)[C@H](CCC(N)=O)NC(=O)[C@H](Cc2cn(C)c3ccccc23)NC1=O) [Compound 69] | < 100 nM |
| Ac-SEYCI[Trp(1-Me)]QDWGEHRC[Sar]EA-NH2 (disulfide 4-14; SMILES CC[C@H](C)[C@@H]1NC(=O)[C@@H](NC(=O)[C@H](Cc2ccc(O)cc2)NC(=O)[C@H](CCC(=O)O)NC(=O)[C@H](CO)NC(C)=O)CSSC[C@@H](C(=O)N(C)CC(=O)N[C@@H](CCC(=O)O)C(=O)N[C@@H](C)C(N)=O)NC(=O)[C@H](CCCNC(=N)N)NC(=O)[C@H](Cc2c[nH]cn2)NC(=O)[C@H](CCC(=O)O)NC(=O)CNC(=O)[C@H](Cc2c[nH]c3ccccc23)NC(=O)[C@H](CC(=O)O)NC(=O)[C@H](CCC(N)=O)NC(=O)[C@H](Cc2cn(C)c3ccccc23)NC1=O) [Compound 71] | < 100 nM |
| Ac-FCI[Trp(1-Me)]QDW[Sar]EHRCTGAES-NH2 (disulfide 2-12; SMILES CC[C@H](C)[C@@H]1NC(=O)[C@@H](NC(=O)[C@H](Cc2ccccc2)NC(C)=O)CSSC[C@@H](C(=O)N[C@H](C(=O)NCC(=O)N[C@@H](C)C(=O)N[C@@H](CCC(=O)O)C(=O)N[C@@H](CO)C(N)=O)[C@@H](C)O)NC(=O)[C@H](CCCNC(=N)N)NC(=O)[C@H](Cc2c[nH]cn2)NC(=O)[C@H](CCC(=O)O)NC(=O)CN(C)C(=O)[C@H](Cc2c[nH]c3ccccc23)NC(=O)[C@H](CC(=O)O)NC(=O)[C@H](CCC(N)=O)NC(=O)[C@H](Cc2cn(C)c3ccccc23)NC1=O) [Compound 72] | < 100 nM |
| Ac-SEFCI[Trp(1-Me)]QDW[Sar]EHRCTEA-NH2 (disulfide 4-14; SMILES CC[C@H](C)[C@@H]1NC(=O)[C@@H](NC(=O)[C@H](Cc2ccccc2)NC(=O)[C@H](CCC(=O)O)NC(=O)[C@H](CO)NC(C)=O)CSSC[C@@H](C(=O)N[C@H](C(=O)N[C@@H](CCC(=O)O)C(=O)N[C@@H](C)C(N)=O)[C@@H](C)O)NC(=O)[C@H](CCCNC(=N)N)NC(=O)[C@H](Cc2c[nH]cn2)NC(=O)[C@H](CCC(=O)O)NC(=O)CN(C)C(=O)[C@H](Cc2c[nH]c3ccccc23)NC(=O)[C@H](CC(=O)O)NC(=O)[C@H](CCC(N)=O)NC(=O)[C@H](Cc2cn(C)c3ccccc23)NC1=O) [Compound 77] | < 100 nM |
| Ac-SEFCI[Trp(1-Me)]QDWGEHRC[Sar]E-NH2 (disulfide 4-14; SMILES CC[C@H](C)[C@@H]1NC(=O)[C@@H](NC(=O)[C@H](Cc2ccccc2)NC(=O)[C@H](CCC(=O)O)NC(=O)[C@H](CO)NC(C)=O)CSSC[C@@H](C(=O)N(C)CC(=O)N[C@@H](CCC(=O)O)C(N)=O)NC(=O)[C@H](CCCNC(=N)N)NC(=O)[C@H](Cc2c[nH]cn2)NC(=O)[C@H](CCC(=O)O)NC(=O)CNC(=O)[C@H](Cc2c[nH]c3ccccc23)NC(=O)[C@H](CC(=O)O)NC(=O)[C@H](CCC(N)=O)NC(=O)[C@H](Cc2cn(C)c3ccccc23)NC1=O) [Compound 78] | < 100 nM |
| Ac-SEFCI[Trp(1-Me)]QDW[Sar]EHRC[Sar]E-NH2 (disulfide 4-14; SMILES CC[C@H](C)[C@@H]1NC(=O)[C@@H](NC(=O)[C@H](Cc2ccccc2)NC(=O)[C@H](CCC(=O)O)NC(=O)[C@H](CO)NC(C)=O)CSSC[C@@H](C(=O)N(C)CC(=O)N[C@@H](CCC(=O)O)C(N)=O)NC(=O)[C@H](CCCNC(=N)N)NC(=O)[C@H](Cc2c[nH]cn2)NC(=O)[C@H](CCC(=O)O)NC(=O)CN(C)C(=O)[C@H](Cc2c[nH]c3ccccc23)NC(=O)[C@H](CC(=O)O)NC(=O)[C@H](CCC(N)=O)NC(=O)[C@H](Cc2cn(C)c3ccccc23)NC1=O) [Compound 79] | < 100 nM |
| Ac-EGSAYCI[Trp(1-Me)]QEWGEHRC[Sar]E-NH2 (disulfide 6-16; SMILES CC[C@H](C)[C@@H]1NC(=O)[C@@H](NC(=O)[C@H](Cc2ccc(O)cc2)NC(=O)[C@H](C)NC(=O)[C@H](CO)NC(=O)CNC(=O)[C@H](CCC(=O)O)NC(C)=O)CSSC[C@@H](C(=O)N(C)CC(=O)N[C@@H](CCC(=O)O)C(N)=O)NC(=O)[C@H](CCCNC(=N)N)NC(=O)[C@H](Cc2c[nH]cn2)NC(=O)[C@H](CCC(=O)O)NC(=O)CNC(=O)[C@H](Cc2c[nH]c3ccccc23)NC(=O)[C@H](CCC(=O)O)NC(=O)[C@H](CCC(N)=O)NC(=O)[C@H](Cc2cn(C)c3ccccc23)NC1=O) [Compound 70] | < 100 nM |
| Ac-SEFCI[Trp(1-Me)]QDW[Sar]EHRC[Sar]EA-NH2 (disulfide 4-14; SMILES CC[C@H](C)[C@@H]1NC(=O)[C@@H](NC(=O)[C@H](Cc2ccccc2)NC(=O)[C@H](CCC(=O)O)NC(=O)[C@H](CO)NC(C)=O)CSSC[C@@H](C(=O)N(C)CC(=O)N[C@@H](CCC(=O)O)C(=O)N[C@@H](C)C(N)=O)NC(=O)[C@H](CCCNC(=N)N)NC(=O)[C@H](Cc2c[nH]cn2)NC(=O)[C@H](CCC(=O)O)NC(=O)CN(C)C(=O)[C@H](Cc2c[nH]c3ccccc23)NC(=O)[C@H](CC(=O)O)NC(=O)[C@H](CCC(N)=O)NC(=O)[C@H](Cc2cn(C)c3ccccc23)NC1=O) [Compound 76] | < 100 nM |
| Ac-SEFCI[Trp(1-Me)]QDWGEHRC[Sar]GAES-NH2 (disulfide 4-14; SMILES CC[C@H](C)[C@@H]1NC(=O)[C@@H](NC(=O)[C@H](Cc2ccccc2)NC(=O)[C@H](CCC(=O)O)NC(=O)[C@H](CO)NC(C)=O)CSSC[C@@H](C(=O)N(C)CC(=O)NCC(=O)N[C@@H](C)C(=O)N[C@@H](CCC(=O)O)C(=O)N[C@@H](CO)C(N)=O)NC(=O)[C@H](CCCNC(=N)N)NC(=O)[C@H](Cc2c[nH]cn2)NC(=O)[C@H](CCC(=O)O)NC(=O)CNC(=O)[C@H](Cc2c[nH]c3ccccc23)NC(=O)[C@H](CC(=O)O)NC(=O)[C@H](CCC(N)=O)NC(=O)[C@H](Cc2cn(C)c3ccccc23)NC1=O) [Compound 74] | < 100 nM |
| Ac-EFCI[Trp(1-Me)]QDWGEHRC[Sar]EA-NH2 (disulfide 3-13; SMILES CC[C@H](C)[C@@H]1NC(=O)[C@@H](NC(=O)[C@H](Cc2ccccc2)NC(=O)[C@H](CCC(=O)O)NC(C)=O)CSSC[C@@H](C(=O)N(C)CC(=O)N[C@@H](CCC(=O)O)C(=O)N[C@@H](C)C(N)=O)NC(=O)[C@H](CCCNC(=N)N)NC(=O)[C@H](Cc2c[nH]cn2)NC(=O)[C@H](CCC(=O)O)NC(=O)CNC(=O)[C@H](Cc2c[nH]c3ccccc23)NC(=O)[C@H](CC(=O)O)NC(=O)[C@H](CCC(N)=O)NC(=O)[C@H](Cc2cn(C)c3ccccc23)NC1=O) [Compound 80] | < 100 nM |
